Laboratory results from patent US20200270125A1 (OMEROS, published 2020).

T1: human MASP-3 (construct not stated) (human)
T1 chain: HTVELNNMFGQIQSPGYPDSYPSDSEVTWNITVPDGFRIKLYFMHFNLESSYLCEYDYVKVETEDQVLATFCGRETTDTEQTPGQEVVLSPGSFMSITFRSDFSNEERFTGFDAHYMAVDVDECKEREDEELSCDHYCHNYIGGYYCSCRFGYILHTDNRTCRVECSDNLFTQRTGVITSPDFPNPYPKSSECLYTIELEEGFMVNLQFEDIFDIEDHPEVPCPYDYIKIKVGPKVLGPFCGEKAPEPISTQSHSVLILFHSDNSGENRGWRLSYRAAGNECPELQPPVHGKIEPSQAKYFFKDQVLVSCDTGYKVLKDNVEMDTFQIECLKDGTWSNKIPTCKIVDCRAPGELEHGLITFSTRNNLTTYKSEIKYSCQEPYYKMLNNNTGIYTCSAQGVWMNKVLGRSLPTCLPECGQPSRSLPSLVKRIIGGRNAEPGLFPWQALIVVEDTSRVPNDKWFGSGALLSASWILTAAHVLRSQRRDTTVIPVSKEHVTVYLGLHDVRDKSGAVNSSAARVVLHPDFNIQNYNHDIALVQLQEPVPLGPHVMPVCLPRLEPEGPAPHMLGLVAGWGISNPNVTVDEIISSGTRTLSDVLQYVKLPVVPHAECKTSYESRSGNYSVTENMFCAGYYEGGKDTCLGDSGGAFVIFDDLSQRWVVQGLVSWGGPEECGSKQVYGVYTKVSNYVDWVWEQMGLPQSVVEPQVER

T2: recombinant full-length mouse MASP-3 (mouse)
T2 construct: Entry is with leader; also called mouse full length MASP-3
T2 chain: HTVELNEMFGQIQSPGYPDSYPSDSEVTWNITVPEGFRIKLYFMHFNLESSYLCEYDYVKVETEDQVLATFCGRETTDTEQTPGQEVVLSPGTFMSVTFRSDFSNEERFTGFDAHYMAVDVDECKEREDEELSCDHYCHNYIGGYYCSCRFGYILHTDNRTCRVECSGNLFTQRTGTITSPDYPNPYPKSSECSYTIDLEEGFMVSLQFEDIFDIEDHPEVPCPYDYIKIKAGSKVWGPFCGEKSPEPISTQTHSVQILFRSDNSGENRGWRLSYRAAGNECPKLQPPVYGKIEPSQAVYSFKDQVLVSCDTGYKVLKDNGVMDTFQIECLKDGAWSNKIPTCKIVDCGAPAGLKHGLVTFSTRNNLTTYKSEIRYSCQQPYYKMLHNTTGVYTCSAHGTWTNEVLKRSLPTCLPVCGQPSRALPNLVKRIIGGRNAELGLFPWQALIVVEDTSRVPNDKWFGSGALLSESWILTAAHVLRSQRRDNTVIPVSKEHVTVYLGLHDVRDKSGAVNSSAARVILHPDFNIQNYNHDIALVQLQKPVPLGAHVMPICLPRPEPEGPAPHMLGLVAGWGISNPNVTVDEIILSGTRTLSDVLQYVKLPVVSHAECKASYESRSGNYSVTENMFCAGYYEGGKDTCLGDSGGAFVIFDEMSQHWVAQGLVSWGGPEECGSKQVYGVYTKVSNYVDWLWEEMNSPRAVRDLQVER

T3: human MASP-3 CCP1-CCP2-SP fragment (human)
T3 construct: limits of the assay construct are not restated; also called rMASP-3 (CCP1-CCP2-SP)
T3 chain: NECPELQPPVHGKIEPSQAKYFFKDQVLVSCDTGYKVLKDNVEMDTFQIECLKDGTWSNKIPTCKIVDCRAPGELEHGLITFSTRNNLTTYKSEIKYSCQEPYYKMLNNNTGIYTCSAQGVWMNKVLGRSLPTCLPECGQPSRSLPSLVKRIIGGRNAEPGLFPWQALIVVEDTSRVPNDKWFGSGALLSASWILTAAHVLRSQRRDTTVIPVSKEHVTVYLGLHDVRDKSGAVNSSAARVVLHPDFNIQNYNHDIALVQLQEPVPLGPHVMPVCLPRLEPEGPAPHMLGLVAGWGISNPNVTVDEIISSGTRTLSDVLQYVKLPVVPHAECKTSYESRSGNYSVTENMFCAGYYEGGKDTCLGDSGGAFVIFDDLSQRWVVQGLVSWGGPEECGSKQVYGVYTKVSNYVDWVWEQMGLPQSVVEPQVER

T4: recombinant human MASP-1A (S646A, CCP1-CCP2-SP fragment) (human, UniProt P48740 298-699, limits assumed)
T4 chain: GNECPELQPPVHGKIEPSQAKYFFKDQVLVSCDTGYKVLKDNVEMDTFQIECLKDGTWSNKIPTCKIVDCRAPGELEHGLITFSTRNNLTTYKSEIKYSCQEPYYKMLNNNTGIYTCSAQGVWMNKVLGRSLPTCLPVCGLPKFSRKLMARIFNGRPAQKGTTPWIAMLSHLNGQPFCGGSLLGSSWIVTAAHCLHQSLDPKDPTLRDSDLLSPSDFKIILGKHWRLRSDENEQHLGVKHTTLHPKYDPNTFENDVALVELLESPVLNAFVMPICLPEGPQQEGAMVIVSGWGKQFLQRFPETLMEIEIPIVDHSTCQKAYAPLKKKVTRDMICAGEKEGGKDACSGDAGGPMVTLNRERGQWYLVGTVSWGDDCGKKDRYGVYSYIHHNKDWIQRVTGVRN


What was measured:
[1] = biological target: T5, recombinant human MASP-2 (CCP1-CCP2-SP fragment) (human, UniProt O00187 298-686, limits assumed); test: ELISA: recombinant MASP-2 (CCP1-CCP2-SP) coated directly on the plate, A450
T5 construct: domain: CCP1-CCP2-SP fragment
T5 sequence (O00187 298-686 limits assumed): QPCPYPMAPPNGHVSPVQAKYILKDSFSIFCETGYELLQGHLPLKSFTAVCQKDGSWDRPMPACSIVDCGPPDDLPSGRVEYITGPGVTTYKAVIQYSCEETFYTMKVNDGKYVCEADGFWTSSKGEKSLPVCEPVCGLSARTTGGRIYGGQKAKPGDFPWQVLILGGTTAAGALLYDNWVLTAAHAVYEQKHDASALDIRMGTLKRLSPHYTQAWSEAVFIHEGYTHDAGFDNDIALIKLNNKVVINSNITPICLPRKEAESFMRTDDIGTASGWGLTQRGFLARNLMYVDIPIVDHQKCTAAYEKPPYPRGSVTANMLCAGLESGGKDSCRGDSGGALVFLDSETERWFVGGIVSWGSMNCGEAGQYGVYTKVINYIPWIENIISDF
Description: (§1) The plate was then washed (PBS-T, 0.05%) and the candidate MASP-3 antibodies were added followed by incubation for one hour at room temperature. The plate was washed (PBS-T, 0.05%) and a detection antibody was added (mouse anti-human kappa-HRP, SouthernBiotech #9230-05) for one hour at room temperature. After another wash (PBS-T, 0.05%) the plate was developed (5 minutes) with OPT EIA TMB (BD Biosciences #555214). Absorbance reading at A450 was measured using the Spectramax M5e plate reader.

[2] = biological target: T1, human MASP-3 (construct not stated); test: cell-based or functional assay
[3] = biological target: T2, recombinant full-length mouse MASP-3; test: sandwich ELISA, full-length mouse MASP-3 captured by αM3-259
Description: as §1

[4] = biological target: T3, human MASP-3 CCP1-CCP2-SP fragment; test: sandwich ELISA, MASP-3 CCP1-CCP2-SP captured by αM3-259
Description: as §1

[5] = biological target: T4, recombinant human MASP-1A (S646A, …); test: ELISA: recombinant MASP-1A (S646A, CCP1-CCP2-SP) coated directly on the plate, A450
Description: as §1

[6] = biological target: T1, human MASP-3 (construct not stated); test: not described at this place
[7] = biological target: T1, human MASP-3 (construct not stated); test: cell-based or functional assay
[8] = biological target: T3, human MASP-3 CCP1-CCP2-SP fragment; test: cell-based or functional assay

| Binder | Inhibition of Rabbit Erythrocyte Lysis (IC50 nM), 10% factor D-depleted human serum [2] [nM] | EC50 [3] [nM] | EC50 [4] [nM] | binding affinity [6] [pM] | Inhibition of Factor Bb Deposition on Zymosan (IC50 nM), 10% factor D-depleted human serum with pro-factor D [7] [nM] | inhibition of MASP-3-dependent fluorogenic tripeptide (BOC-V-P-R-AMC) cleavage [8] [nM] | binding result [1] | binding result [5] |
| --- | --- | --- | --- | --- | --- | --- | --- | --- |
| MASP-3 mAb 2F5 (mouse-human chimeric IgG4) (antibody, V domains shown) VH: EVQLQQPGAELVKPGASVKMSCKASGYTFTSYWITWVKQRPGQGLEWIGDIYPGSGSTNYNEKFKSKATLTVDTSSSTAYMQLSSLTSEDSAVYYCARRRYYATAWFAYWGQGTLVTVSS VL: DIVMTQSQKFMSTSVGDRVSITCKASQNVGTAVAWYQQKPGQSPKLLISSASNRYTGVPDRFTGSGSGTDFTLTISNMQSEDVADYFCQQYNSYPLTFGAGTKLELKR | 0.9 | 0.102 | 0.073 | ≤ 500 |  |  | no binding (tested: about 20 nM (log10 about 1.3)) | no binding (tested: about 20 nM (log10 about 1.3)) |
| MASP-3 mAb 2F2 (mouse-human chimeric IgG4) (antibody, V domains shown) VH: QVQLKQSGAELVTPGASVKMSCKASGYTFTTYPIEWMKQNHGKSLEWIGNFHPYNDDTKYNEKFKGKATLTVEKSSNTVYLELSRLTSDDSAVYFCARRVYYSYFWFGYWGHGTLVTVSS VL: DIVMTQSQKFMSTSVGDRVNVTCKASQNVGTHVAWYQQKPGQSPKALIYSASYRYSGVPDRFTGSGSGTDFTLTISNVQSEDLAEYFCQQYNSYPRALTFGAGTKLELKR | 0.8 | 0.105 | 0.057 | ≤ 500 |  |  | no binding (tested: about 20 nM (log10 about 1.3)) | no binding (tested: about 20 nM (log10 about 1.3)) |
| MASP-3 mAb 1A10 (mouse-human chimeric IgG4) (antibody, V domains shown, The light chain of 1A10 was not identified) VH: QVQLKQSGPELVKPGASVKLSCKASGYTFTSNDINWVKQRPGQGLEWIGWIYPRDGTTKYNEKFTDKATLTVDVSSSTAFMELHRLTSEDSAVYFCSSVEDSYWGQGTLVTVSS VL: DIVMTQSPSSLAVSAGEKVTMSCKSSQSLLISRTRKNYLSWYQQKPGQSPKLLIYWASTRESGVPDRFTGSGSGTDFTLTISSVQAEDLAVYYCKQSYNLYTFGGGTKLEIKR | 0.2 | 0.15 | 0.241 | ≤ 500 |  | 29.8 | no binding (tested: about 20 nM (log10 about 1.3)) | no binding (tested: about 20 nM (log10 about 1.3)) |
| MASP-3 mAb 1F3 (mouse-human chimeric IgG4) (antibody, V domains shown) VH: QVQLKQSGPELVKPGASVKLSCKASGYTFTSNDINWVKQRPGQGLEWIGWIYPRDGSIKYNEKFTDKATLTVDVSSSTAYMELHSLTSEDSAVYFCSGVEDSYWGQGTLVTVSS VL: DIVMTQSPSSLAVSAGERVTMSCKSSQSLLISRTRKNYLSWYQQKPGQSPKLLIYWASTRESGVPDRFTGSGSGTDFTLTISSVQAEDLAVYYCKQSYNLYTFGGGTKLEIKR | 0.2 | 0.111 | 0.236 | ≤ 500 | 0.1 | 33 | no binding (tested: about 20 nM (log10 about 1.3)) | no binding (tested: about 20 nM (log10 about 1.3)) |
| MASP-3 mAb 4B6 (mouse-human chimeric IgG4) (antibody, V domains shown) VH: QVQLKQSGPELVKPGASVKLSCKASGYTFTSNDINWVKQRPGQGLEWIGWIYPRDGTTKYNEEFTDKATLTVDVSSSTAFMELHSLTSEDSAVYFCSSVEDSYWGQGTLVTVSS VL: DIVMTQSPSSLAVSAGEKVTMSCKSSQSLLISRTRKNYLSWYQQKPGQSPKLLIYWASTRESGVPDRFTGSGSGTDFTLTISSVQAEDLAVYYCKQSYNLYTFGGGTKLEIKR | 0.2 | 0.188 | 0.211 | ≤ 500 | 0.2 | 26 | no binding (tested: about 20 nM (log10 about 1.3)) | no binding (tested: about 20 nM (log10 about 1.3)) |

Further binders by falling EC50 [4], results first:

| Inhibition of Rabbit Erythrocyte Lysis (IC50 nM), 10% factor D-depleted human serum [2] [nM] | EC50 [3] [nM] | EC50 [4] [nM] | binding affinity [6] [pM] | Inhibition of Factor Bb Deposition on Zymosan (IC50 nM), 10% factor D-depleted human serum with pro-factor D [7] [nM] | inhibition of MASP-3-dependent fluorogenic tripeptide (BOC-V-P-R-AMC) cleavage [8] [nM] | Binder | binding result [1] | binding result [5] |
| --- | --- | --- | --- | --- | --- | --- | --- | --- |
| 2.7 | 3.7 | 0.177 | ≤ 500 | 1.1 | 29.6 | MASP-3 mAb 1G4 (mouse-human chimeric IgG4) (antibody, V domains shown) VH: QVQLKQSGAELMKPGASVKLACKATGYTFTGYWIEWIKQRPGQGLEWIGEMLPGSGSTHYNEKFKGKATFTADTSSNTAYMQLSGLTTEDSAIYYCVRSIDYWGQGTTLTVSS VL: DVLMTQTPLSLPVSLGEQASISCRSSQSLVQSNGNTYLHWYLQKPGQSPKLLIYKVSNRFSGVPDRFSGSGSGTDFTLKISRVEAEDLGVYFCSQSTHVPPTFGGGTKLEIKR | no binding (tested: about 20 nM (log10 about 1.3)) | no binding (tested: about 20 nM (log10 about 1.3)) |
| 5.4 |  | 0.122 | ≤ 500 | 3.5 |  | MASP-3 mAb 2D7 (mouse-human chimeric IgG4) (antibody, V domains shown) VH: EVQLQQSGPELVKPGASVKVSCKASGYTLTDYYMNWVKQSHGKSLEWIGDVNPNNDGTTYNQKFKGRATLTVDKSSNTASMELRSLTSEDSAVYYCAICPFYYLGKGTHFDYWGQGTSLTVSS VL: DIQMTQTPASLSASLGDRVTISCRASQDISNFLNWYQQKPNGTVKLLVFYTSRLHSGVPSRFSGSGSGAEHSLTISNLEQEDVATYFCQQGFTLPWTFGGGTKVEIKR | no binding (tested: about 20 nM (log10 about 1.3)) | no binding (tested: about 20 nM (log10 about 1.3)) |
